Experimental data: publication PMC3923860

Experiments:
[1] = system: histone H1o (H1) (human); test: EMSA; details: no competitor DNA, EMSA: 50 mM NaCl, 25 mM Tris-HCl pH 7.5, 1 mM EDTA, 1 mM DTT, 100 ug/ml acetylated BSA, 3% glycerol, 30 min on ice
[2] = system: oxidized HMGB1 (Cys23-Cys45 disulfide) (rat (sequence identical to human)); test: EMSA; details: EMSA: 50 mM NaCl, 25 mM Tris-HCl pH 7.5, 1 mM EDTA, 1 mM DTT, 100 ug/ml acetylated BSA, 3% glycerol, 30 min on ice
[3] = system: reduced HMGB1 (all-thiol) (rat (sequence identical to human)); test: EMSA; details: EMSA: 50 mM NaCl, 25 mM Tris-HCl pH 7.5, 1 mM EDTA, 1 mM DTT, 100 ug/ml acetylated BSA, 3% glycerol, 30 min on ice
[4] = system: oxidized HMGB1 (Cys23-Cys45 disulfide) (rat (sequence identical to human)); test: ligase-mediated circularization; details: bending, EMSA: 50 mM NaCl, 25 mM Tris-HCl pH 7.5, 1 mM EDTA, 1 mM DTT, 100 ug/ml acetylated BSA, 3% glycerol, 30 min on ice, gels 0.5x TBE, 4 C
[5] = covalently closed circle, gels 0.5x TBE …

**Q.** For 66-bp DNA minicircle, which Kd [1, 5] is on record?
**A.** The Kd was 5 nM.

**Q.** What about the Kd ([2]; oxidized, covalently closed circle, gels 0.5x TBE …) of the same substance?
**A.** The Kd was 0.25 nM.

**Q.** What about the Kd [3, 5] of the same substance?
**A.** Its Kd is less than 0.1 nM.

**Q.** Which binding signal (% of minicircles with reduced HMGB1) [4] does the source give for 123-bp DNA duplex here?
**A.** The binding signal (% of minicircles with reduced HMGB1) was less than 20.

**Q.** For hemicatenated DNA loops (hcDNA), which Kd ([1]; gels 0.5x TBE, 4 C) is on record?
**A.** Its Kd is 6 nM.

**Q.** And the Kd ([2]; gels 0.5x TBE, 4 C)?
**A.** The Kd was less than 0.01 nM.

**Q.** And the binding signal (fold lower affinity than reduced (up to)) ([2]; oxidized, gels 0.5x TBE, 4 C)?
**A.** Its binding signal (fold lower affinity than reduced (up to)) is 10.

**Q.** And the Kd ([3]; gels 0.5x TBE, 4 C)?
**A.** Its Kd is less than 0.01 nM.
